In patent JP2008194054A (dated 2008):

T1: 精製連鎖球菌抗原(SA)I/II (Streptococcus mutans, UniProt P23504 39-1532)
T1 construct: Purified antigen; also called 固定化精製連鎖球菌抗原
T1 sequence (looked up): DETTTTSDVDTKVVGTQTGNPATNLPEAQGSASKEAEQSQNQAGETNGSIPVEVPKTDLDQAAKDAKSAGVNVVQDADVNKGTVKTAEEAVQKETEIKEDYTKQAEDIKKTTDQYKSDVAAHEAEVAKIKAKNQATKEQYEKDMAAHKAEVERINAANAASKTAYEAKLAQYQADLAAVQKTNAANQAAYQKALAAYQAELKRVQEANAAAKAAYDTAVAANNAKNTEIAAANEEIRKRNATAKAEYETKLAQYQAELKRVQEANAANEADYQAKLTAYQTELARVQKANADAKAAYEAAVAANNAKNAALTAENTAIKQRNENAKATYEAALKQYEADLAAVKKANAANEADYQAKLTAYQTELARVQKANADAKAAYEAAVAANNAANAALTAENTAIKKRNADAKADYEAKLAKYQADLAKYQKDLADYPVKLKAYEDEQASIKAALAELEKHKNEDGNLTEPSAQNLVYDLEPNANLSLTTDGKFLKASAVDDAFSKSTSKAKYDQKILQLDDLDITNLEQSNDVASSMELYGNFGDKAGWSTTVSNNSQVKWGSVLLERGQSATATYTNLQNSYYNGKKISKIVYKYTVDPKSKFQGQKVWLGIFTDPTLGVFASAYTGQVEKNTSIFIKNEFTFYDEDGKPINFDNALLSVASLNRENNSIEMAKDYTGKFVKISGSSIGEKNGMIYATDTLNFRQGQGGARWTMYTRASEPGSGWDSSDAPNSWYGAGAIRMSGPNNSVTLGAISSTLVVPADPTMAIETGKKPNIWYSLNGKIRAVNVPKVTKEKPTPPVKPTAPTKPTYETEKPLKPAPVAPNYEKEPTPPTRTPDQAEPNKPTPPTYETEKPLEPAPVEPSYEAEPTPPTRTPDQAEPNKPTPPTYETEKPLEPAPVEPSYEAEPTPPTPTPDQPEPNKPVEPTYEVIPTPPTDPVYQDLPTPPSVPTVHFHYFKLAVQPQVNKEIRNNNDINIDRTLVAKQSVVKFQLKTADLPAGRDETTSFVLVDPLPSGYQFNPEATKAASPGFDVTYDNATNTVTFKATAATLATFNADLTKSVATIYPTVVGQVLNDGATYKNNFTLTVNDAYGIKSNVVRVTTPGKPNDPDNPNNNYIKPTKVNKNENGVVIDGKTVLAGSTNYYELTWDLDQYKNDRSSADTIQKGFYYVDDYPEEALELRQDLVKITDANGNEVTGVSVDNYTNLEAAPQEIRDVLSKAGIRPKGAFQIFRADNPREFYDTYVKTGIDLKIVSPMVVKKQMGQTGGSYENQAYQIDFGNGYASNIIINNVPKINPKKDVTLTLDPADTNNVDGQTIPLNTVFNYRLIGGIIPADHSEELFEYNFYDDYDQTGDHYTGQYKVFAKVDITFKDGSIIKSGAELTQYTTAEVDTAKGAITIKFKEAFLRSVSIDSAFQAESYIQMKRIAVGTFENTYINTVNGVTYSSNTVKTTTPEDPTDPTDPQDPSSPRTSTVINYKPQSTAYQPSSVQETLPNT

B1: マウスJ鎖 (J鎖のみを発現する植物) (other, mouse, UniProt P01592 22-159, looked up)
chain: GDDEATILADNKCMCTRVTSRIIPSTEDPNEDIVERNIRIVVPLNNRENISDPTSPLRRNFVYHLSDVCKKCDPVEVELEDQVVTATQSNICNEDDGVPETCYMYDRNKCYTTMVPLRYHGETKMVQAALTPDSCYPD
notes: Tested as extract of tobacco plants that express J chain only, or by co-expression

How the values were obtained:
精製連鎖球菌抗原(SA)I/II [1] = target: T1, 精製連鎖球菌抗原(SA)I/II; assay: competition ELISA on purified SA I/II; competitor 125I-labelled mouse Guy's13
精製連鎖球菌抗原(SA)I/II [2] = target: T1, 精製連鎖球菌抗原(SA)I/II; assay: ELISA on SA I/II, plant extracts

Row | Molecule | 標識マウスGuy's13の阻害% (精製連鎖球菌抗原(SA)I/II [1]) [%] | binding result (精製連鎖球菌抗原(SA)I/II [2])
1 | 植物G1/A (Guy's13可変領域−(IgG1 CH1)−(IgA CH2)−(IgA CH3) ハイブリッド重鎖とカッパ鎖) (from UniProt P01878 101-344) (antibody) | < 85 | –
2 | 植物G13 (本来のガンマ重鎖のGuy's13IgG、タバコで発現) (antibody) | < 85 | –
3 | 植物G2/A (var−γ1−γ2−α2−α3ドメインを含むIgG/IgAハイブリッド重鎖のGuy's13) (from UniProt P01878 101-344) (antibody) | < 85 | –
4 | B1 | – | no binding
